Experimental data taken from the supplement of paper PMC9112550, “Optimization of the antimicrobial peptide Bac7 by deep mutational scanning” (BMC Biology, 2022).
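Also: peptides expressed intracellularly from a pBAD plasmid library in pooled LB shake-flask culture, induced with 0.3% L-arabinose, DNA abundance read by NGS, three biological replicates, DESeq2 with apeglm shrinkage.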

What follows are sequences tested on Escherichia coli TOP10 (assay: shrunken log2 fold change of peptide-encoding DNA abundance (4.5 h post-induction vs induction); higher = less antimicrobial activity (less host growth inhibition)). Details: time post-induction: 4.5 h; library: site-saturation at positions 5, 18, 19, 20.
RRIRERPPRLPRPRPRPDWSPRP was tested, and the “shrunken log2 fold change” value was -0.0645.
In the case of RRIRLRPPRLPRPRPRPGWSPRP, the “shrunken log2 fold change” value is reported as 0.0496.
For RRIRPRPPRLPRPRPRPHLTPRP, the “shrunken log2 fold change” value was 0.185.
For RRIRLRPPRLPRPRPRPAIKPRP, the “shrunken log2 fold change” value was -0.139.
With RRIRMRPPRLPRPRPRPLFCPRP the “shrunken log2 fold change” value was 0.188.
In the case of RRIRNRPPRLPRPRPRPAKAPRP, the “shrunken log2 fold change” value is reported as 0.113.
RRIRLRPPRLPRPRPRPSTLPRP was tested, and the “shrunken log2 fold change” value was -0.552.
RRIRHRPPRLPRPRPRPSWLPRP was tested, and the “shrunken log2 fold change” value was -0.0847.
RRIRMRPPRLPRPRPRPSKPPRP was tested, and the “shrunken log2 fold change” value was 0.0519.
With RRIRKRPPRLPRPRPRPVMFPRP the “shrunken log2 fold change” value was 0.124.
RRIRERPPRLPRPRPRPHGTPRP was tested, and the “shrunken log2 fold change” value was 0.0284.
RRIRERPPRLPRPRPRPVIVPRP was tested, and the “shrunken log2 fold change” value was -0.373.
With RRIRYRPPRLPRPRPRPTVSPRP the “shrunken log2 fold change” value was -0.288.
For RRIRARPPRLPRPRPRPRLFPRP, the “shrunken log2 fold change” value was 0.465.
For RRIRSRPPRLPRPRPRPQPWPRP, the “shrunken log2 fold change” value was 0.366.
In the case of RRIRVRPPRLPRPRPRPHDYPRP, the “shrunken log2 fold change” value is reported as -0.264.
With RRIRKRPPRLPRPRPRPSSLPRP the “shrunken log2 fold change” value was -0.557.
For RRIRNRPPRLPRPRPRPSYNPRP, the “shrunken log2 fold change” value was -0.974.
In the case of RRIRPRPPRLPRPRPRPYHSPRP, the “shrunken log2 fold change” value is reported as -0.659.
With RRIRGRPPRLPRPRPRPRGTPRP the “shrunken log2 fold change” value was 1.16.
In the case of RRIRQRPPRLPRPRPRPSCIPRP, the “shrunken log2 fold change” value is reported as -0.238.
RRIRNRPPRLPRPRPRPHDMPRP was tested, and the “shrunken log2 fold change” value was -0.137.
For RRIRNRPPRLPRPRPRPECMPRP, the “shrunken log2 fold change” value was 0.406.
In the case of RRIRHRPPRLPRPRPRPFKMPRP, the “shrunken log2 fold change” value is reported as -0.274.
With RRIRERPPRLPRPRPRPTVCPRP the “shrunken log2 fold change” value was 0.141.
RRIRLRPPRLPRPRPRPNHCPRP was tested, and the “shrunken log2 fold change” value was -0.132.
With RRIRTRPPRLPRPRPRPRNSPRP the “shrunken log2 fold change” value was -0.193.
RRIRARPPRLPRPRPRPIQWPRP was tested, and the “shrunken log2 fold change” value was 0.0649.
With RRIRSRPPRLPRPRPRPQHSPRP the “shrunken log2 fold change” value was -0.658.
In the case of RRIRLRPPRLPRPRPRPVIKPRP, the “shrunken log2 fold change” value is reported as -0.111.
RRIRLRPPRLPRPRPRPYENPRP was tested, and the “shrunken log2 fold change” value was -0.0259.
RRIRKRPPRLPRPRPRPYFIPRP was tested, and the “shrunken log2 fold change” value was -0.515.
RRIRWRPPRLPRPRPRPAGLPRP was tested, and the “shrunken log2 fold change” value was 0.289.
RRIRIRPPRLPRPRPRPEAPPRP was tested, and the “shrunken log2 fold change” value was 0.366.
With RRIRCRPPRLPRPRPRPVGRPRP the “shrunken log2 fold change” value was 0.422.
For RRIRPRPPRLPRPRPRPGICPRP, the “shrunken log2 fold change” value was -0.0417.
For RRIRHRPPRLPRPRPRPCINPRP, the “shrunken log2 fold change” value was -0.306.
In the case of RRIRDRPPRLPRPRPRPTGKPRP, the “shrunken log2 fold change” value is reported as 0.0507.
RRIRCRPPRLPRPRPRPELKPRP was tested, and the “shrunken log2 fold change” value was 0.0478.
With RRIRYRPPRLPRPRPRPPSPPRP the “shrunken log2 fold change” value was 0.398.
For RRIRFRPPRLPRPRPRPTIMPRP, the “shrunken log2 fold change” value was -0.375.
With RRIRARPPRLPRPRPRPPNNPRP the “shrunken log2 fold change” value was 0.0107.
With RRIRARPPRLPRPRPRPDGYPRP the “shrunken log2 fold change” value was 0.647.
In the case of RRIRRRPPRLPRPRPRPGSQPRP, the “shrunken log2 fold change” value is reported as -0.0144.
In the case of RRIRDRPPRLPRPRPRPELGPRP, the “shrunken log2 fold change” value is reported as 1.53.
In the case of RRIRCRPPRLPRPRPRPPVCPRP, the “shrunken log2 fold change” value is reported as 0.222.
RRIRKRPPRLPRPRPRPLERPRP was tested, and the “shrunken log2 fold change” value was 0.529.
In the case of RRIRMRPPRLPRPRPRPDQLPRP, the “shrunken log2 fold change” value is reported as 0.391.
In the case of RRIRTRPPRLPRPRPRPIYVPRP, the “shrunken log2 fold change” value is reported as -0.34.
With RRIRDRPPRLPRPRPRPTKSPRP the “shrunken log2 fold change” value was 0.366.
For RRIRNRPPRLPRPRPRPNSWPRP, the “shrunken log2 fold change” value was -0.3.
RRIRFRPPRLPRPRPRPEDQPRP was tested, and the “shrunken log2 fold change” value was 0.502.
With RRIRQRPPRLPRPRPRPCCVPRP the “shrunken log2 fold change” value was 0.115.
With RRIRDRPPRLPRPRPRPTSTPRP the “shrunken log2 fold change” value was 0.231.
For RRIRFRPPRLPRPRPRPCCTPRP, the “shrunken log2 fold change” value was -0.337.
With RRIRVRPPRLPRPRPRPAFKPRP the “shrunken log2 fold change” value was 0.086.
RRIRYRPPRLPRPRPRPMQDPRP was tested, and the “shrunken log2 fold change” value was -0.28.
RRIRRRPPRLPRPRPRPIKYPRP was tested, and the “shrunken log2 fold change” value was 0.0338.
With RRIRGRPPRLPRPRPRPCWTPRP the “shrunken log2 fold change” value was 0.28.
RRIRCRPPRLPRPRPRPIGTPRP was tested, and the “shrunken log2 fold change” value was -0.279.
In the case of RRIRFRPPRLPRPRPRPKQYPRP, the “shrunken log2 fold change” value is reported as -0.43.
In the case of RRIRWRPPRLPRPRPRPDLLPRP, the “shrunken log2 fold change” value is reported as 0.0586.
With RRIRFRPPRLPRPRPRPFTAPRP the “shrunken log2 fold change” value was -0.662.
In the case of RRIRSRPPRLPRPRPRPWLIPRP, the “shrunken log2 fold change” value is reported as -0.0422.
With RRIRRRPPRLPRPRPRPSHYPRP the “shrunken log2 fold change” value was -0.131.
With RRIRKRPPRLPRPRPRPWRGPRP the “shrunken log2 fold change” value was 0.155.
For RRIRQRPPRLPRPRPRPKGAPRP, the “shrunken log2 fold change” value was 0.0159.
RRIRQRPPRLPRPRPRPELEPRP was tested, and the “shrunken log2 fold change” value was -0.0293.
In the case of RRIRGRPPRLPRPRPRPKPHPRP, the “shrunken log2 fold change” value is reported as 0.854.
For RRIRNRPPRLPRPRPRPCNKPRP, the “shrunken log2 fold change” value was -0.334.
RRIRDRPPRLPRPRPRPLQKPRP was tested, and the “shrunken log2 fold change” value was -0.0982.
For RRIRSRPPRLPRPRPRPTQYPRP, the “shrunken log2 fold change” value was -0.0116.
In the case of RRIRQRPPRLPRPRPRPIFLPRP, the “shrunken log2 fold change” value is reported as 0.805.
RRIRWRPPRLPRPRPRPFMQPRP was tested, and the “shrunken log2 fold change” value was -0.261.
For RRIRMRPPRLPRPRPRPFRHPRP, the “shrunken log2 fold change” value was 0.0701.
